The source of these data is patent US20190300616A1 (UNIVERSITY OF CHICAGO, published 2019).

Assay [1] concerns the target T1, recombinant mouse IL13Rα2hFc chimera (mouse, UniProt O88786 22-334, limits assumed).
T1 construct: Bought from R&D Systems; also called mouse rIL13Rα2; mouse recombinant IL13Rα2; not shown: human Fc (hFc) of the purchased chimera
T1 sequence (looked up): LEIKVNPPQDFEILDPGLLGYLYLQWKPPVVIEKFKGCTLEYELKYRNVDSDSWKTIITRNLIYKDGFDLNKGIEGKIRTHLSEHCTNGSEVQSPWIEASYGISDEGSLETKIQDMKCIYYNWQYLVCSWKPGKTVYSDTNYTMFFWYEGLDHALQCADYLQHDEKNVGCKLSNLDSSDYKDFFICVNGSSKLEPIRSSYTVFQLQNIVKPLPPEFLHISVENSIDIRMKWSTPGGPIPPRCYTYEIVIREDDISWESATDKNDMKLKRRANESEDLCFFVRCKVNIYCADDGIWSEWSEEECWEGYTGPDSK
Description: plate-bound ELISA on mouse rIL13Rα2hFc.

Assay [2] addresses T2, recombinant human IL13Rα1hFc chimera (human, UniProt P78552 27-343, limits assumed).
T2 construct: Bought from R&D Systems; also called rhIL13Rα1; hrIL13Rα1; not shown: human Fc (hFc) of the purchased chimera
T2 sequence (looked up): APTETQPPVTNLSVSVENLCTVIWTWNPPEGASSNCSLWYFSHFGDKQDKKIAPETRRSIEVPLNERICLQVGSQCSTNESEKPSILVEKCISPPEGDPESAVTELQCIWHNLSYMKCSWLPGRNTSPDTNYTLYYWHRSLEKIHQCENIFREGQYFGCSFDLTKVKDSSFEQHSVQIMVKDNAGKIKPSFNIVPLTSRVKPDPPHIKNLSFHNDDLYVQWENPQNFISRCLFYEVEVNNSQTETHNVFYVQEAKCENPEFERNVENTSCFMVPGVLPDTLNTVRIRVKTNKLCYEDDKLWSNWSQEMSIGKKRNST
Put plainly: plate-bound ELISA on IL13Rα1hFc. In general terms: ELISA stands for enzyme-linked immunosorbent assay.

In assay [3] the target is T3, CD28.OX40.z.
T3 construct: also called M47 IL13Ra2 - SH - TM - CD28 - OX40 - ζ-chain CAR on T cells
Description: flow cytometry of transduced T cells stained with IL13Rα2Fc and secondary antibody, axis labelled CAR.

Assay [4] addresses T4, *41BB.z.
T4 construct: also called M47 IL13Ra2 - SH - TM* (CD8a) - 41BB - ζ-chain CAR on T cells
The assay is described as above.

B1: IL13Rα2 (clone 47) mAb (antibody, V domains shown)
VH: QVQLQQPGAELVRPGASVKLSCKASGYTFSNYLMNWVKQRPEQDLDWIGRIDPYDGDIDYNQNFKDKAILTVDKSSSTAYMQLSSLTSEDSAVYYCARGYGTAYGVDYWGQGTSVTVSS
VL: not shown
notes: Mouse hybridoma antibody; mIgG1 was used as isotype control; also called mAb47; m47
As to B1, the binding result in assay [1] is recorded as “no binding”; in assay [2], “no binding (tested: 4 µg/ml)”.

B2: recombinant human IL13Rα2hFc chimera (Fc fusion, UniProt Q14627 27-343, looked up)
chain: DTEIKVNPPQDFEIVDPGYLGYLYLQWQPPLSLDHFKECTVEYELKYRNIGSETWKTIITKNLHYKDGFDLNKGIEAKIHTLLPWQCTNGSEVQSSWAETTYWISPQGIPETKVQDMDCVYYNWQYLLCSWKPGIGVLLDTNYNLFYWYEGLDHALQCVDYIKADGQNIGCRFPYLEASDYKDFYICVNGSSENKPIRSSYFTFQLQNIVKPLPPVYLTFTRESSCEIKLKWSIPLGPIPARCFDYEIEIREDDTTLVTATVENETYTLKTTNETRQLCFVVRSKVNIYCSDDGIWSEWSDKQCWEGEDLSKKTLLR
notes: Bought from R&D Systems; also called rhIL13Rα2hFc; rhIL13Rα2; not shown: human Fc (hFc) of the purchased chimera
With B2, the binding result in assay [3] and in assay [4] was “binds” in each case.
